In the assay the target is nebu_human NEB (UniProt P20929).
With Titin (Homo sapiens), Q8WZ42 P254G, the “effect of a mutation on the interaction” value is “decreasing interaction”.
The entry for Titin (Homo sapiens), Q8WZ42 P266G is “decreasing interaction”; for Titin (Homo sapiens), Q8WZ42 P268G it is “decreasing interaction”; for Titin (Homo sapiens), Q8WZ42 P258G it is “decreasing interaction”.
The entry for Titin (Homo sapiens), Q8WZ42 P269G is “decreasing interaction”.
